Laboratory results from patent US20210292762, “ICAM-1 APTAMERS, DIAGNOSTIC AND THERAPEUTIC USES THEREOF” (BRACCO IMAGING S.P.A., published 2021).

Key:
ICAM-1 [1] = target: T1, ICAM-1 (Homo sapiens, UniProt P05362 P05362:28-532); test: RT-qPCR cell binding, 50 nM RNA, 37 C 15 min, yeast tRNA pre-treatment; conditions: tags: full-length human ICAM-1 cDNA (pCMV6-ICAM-1) transiently expressed in COS7 cells
Procedure: Following the analysis of the enriched sequences, binding assays by RT-qPCR were performed in order to select the sequences able to bind COS7-ICAM-1. Essentially, DNA sequences were amplified and transcribed. Then, RNA sequences were incubated at 50 nM, as final concentration, for 15 minutes at 37° C., after pre-treatment with yeast tRNA 200 μg/mL, on COS7-WT and COS7-ICAM-1. Following incubation, cells were washed 3 times with PBS and recovered in TRIsure reagent. An RNA sequence used as reference control was spotted in each point for the normalization. A fold ratio was calculated comparing binding values of COS7-ICAM-1 over COS7-WT. Twelve sequences representatives of couples or groups of identical sequences were screened. Those with higher fold ratio were chosen for further analysis performing experimental triplicates.

ICAM-1 [2] = target: T1, ICAM-1; test: flow; COS7-ICAM-1 cells, 37 C 30 min, yeast tRNA 200 ug/mL pre-treatment, n=6; conditions: tags: full-length human ICAM-1 cDNA (pCMV6-ICAM-1) transiently expressed in COS7 cells; label: 5'-Alexa Fluor 488
[3] = target: ICAM-1 (endogenous, TNFalpha-induced) (UniProt P05362 P05362:28-532); test: flow; TNFalpha-stimulated HMEC-1 cells, 37 C 30 min, yeast tRNA 200 ug/mL pre-treatment, n=3; conditions: tags: HMEC-1 cells stimulated with TNFalpha 48 h; label: 5'-Alexa Fluor 488
Sequence of ICAM-1 (endogenous, TNFalpha-induced) (P05362 28-532, one chain of several): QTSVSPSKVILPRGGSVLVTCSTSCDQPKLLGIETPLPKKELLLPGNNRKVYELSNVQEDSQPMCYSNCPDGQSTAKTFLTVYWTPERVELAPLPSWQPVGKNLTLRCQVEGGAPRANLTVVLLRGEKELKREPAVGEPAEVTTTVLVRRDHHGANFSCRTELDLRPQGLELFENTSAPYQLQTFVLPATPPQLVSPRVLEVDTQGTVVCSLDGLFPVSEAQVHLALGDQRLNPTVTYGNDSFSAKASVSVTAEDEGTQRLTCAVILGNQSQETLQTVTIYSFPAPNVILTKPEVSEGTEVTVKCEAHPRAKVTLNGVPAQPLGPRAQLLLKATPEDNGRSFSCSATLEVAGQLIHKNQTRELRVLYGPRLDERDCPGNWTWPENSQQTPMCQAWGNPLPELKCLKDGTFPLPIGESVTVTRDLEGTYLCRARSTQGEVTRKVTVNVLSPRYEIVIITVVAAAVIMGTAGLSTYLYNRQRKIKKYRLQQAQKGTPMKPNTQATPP
Procedure: HMEC-1 cells were stimulated with TNFalpha for 48h to induce ICAM-1 expression.

ICAM-1 [4] = target: T1, ICAM-1; test: RT-qPCR cell binding, 50 nM RNA, 37 C 15 min; conditions: tags: full-length human ICAM-1 cDNA (pCMV6-ICAM-1) transiently expressed in COS7 cells
Procedure: To the aim of testing if the short aptamer 10.T (SEQ ID NO: 1) contained the active site of the original molecule 12c-10 (SEQ ID NO: 2) and preserved high binding and affinity to COS7-ICAM-1, binding assays were performed maintaining the same conditions used for long aptamers screening.
The RNA sequence 10.T was incubated at 50 nM, as final concentration, for 15 minutes at 37° C. on COS7-WT and COS7-ICAM-1. The ratio comparing binding values of COS7-ICAM-1 over COS7-WT (fold change) is reported in FIG. 5, showing a value of 2.2.

ICAM-1 [5] = target: T1, ICAM-1; test: RT-qPCR cell binding on COS7-ICAM-1, 37 C 15 min, yeast tRNA 200 ug/mL pre-treatment; conditions: tags: full-length human ICAM-1 cDNA (pCMV6-ICAM-1) transiently expressed in COS7 cells
Procedure: The same experiment was carried out with the unrelated aptamer A10, as negative control (sequence disclosed in Lupold S. E. et al., Cancer Res. 2002, 62, 4029-4033). The binding was evaluated by RT-qPCR.

T1 sequence (P05362 28-532, one chain of several): as above

B1: 12c-10 (ssRNA)
RNA: GGGAAGAGAAGGACAUAUGAUCAUGAUACGUUGCGUGAGCAACUGCGGCGCUAAAGUUUGGUUGACUAGUACAUGACCACUUGA
modifications: 2'-F pyrimidines
binding signal (ICAM-1 [1]): 3.13 fold COS7-ICAM-1 over COS7-WT

B2: Alexa488-10.T (ssRNA)
RNA: UCAUGAUACGUUGCGUGAGCAACUGCGGCGCUAAAGUUUGGUUGACUAGUACAUG
modifications: 2'-F pyrimidines; 5'-C12 amino linker
Kd (ICAM-1 [2]): 116 nM | Kd [3]: 106 nM

B3: 10.T (ssRNA)
RNA: B2 RNA
modifications: 2'-F pyrimidines
binding signal (ICAM-1 [4]): 2.2 fold COS7-ICAM-1 over COS7-WT | Kd (ICAM-1 [5]): 376 nM
